Consider 4 molecules from patent US8703915B2, “Mutant proteins and methods for producing them” (Heptares Therapeutics Limited, priority 2009, dated 2014).

Numbering of substitutions follows the chain as printed. Names and notes keep the numbering of the source.

One data set has as its target T1, A2A receptor (Homo sapiens, UniProt P29274, N284A).
T1 construct: A2AR-(2-316) expression was carried out by using the pRG/III-hs-MBP E. coli expression vector; MBP (named only in the vector name); made in house
In words: Two point thermostability measurement, NECA binding to A2A alanine scan mutants in DDM. The class given is physicochemical. Conditions: 4° C. versus destabilising temperature such as 30° C. How it is done: In the A2A agonist-bound study the effect of mutations from the alanine scan were determined initially by two point thermostability measurements. In these experiments, the wild type receptors and receptors containing single mutants were solubilised in the detergent DDM and the amount of NECA binding retained at 4° C. and at a destabilising temperature such as 30° C. was determined. A>10% increase in agonist binding to the mutant receptor compared to the wild type receptor at the destabilising temperature is considered to be significant and is indicative of an increase in thermostability.

For data set [1], the system named is 5HT2C receptor. In words: Thermostability of 5HT2C receptor bound to agonist SCH23390. The class given is physicochemical, human. Here is the method:
An alanine scan has been carried out on the 5HT2C receptor in the presence of the agonist SCH23390 in order to stabilise the agonist conformation. Similar to A2A, it appears that mutating L2.46 (L95 in 5HT2C) to alanine confers significant stability on this receptor increasing the Tm of the receptor by 5.4° C. (FIG. 7). It is notable that in addition to L95, mutating the nearby M93 (two residues away from L2.46) to alanine also confers stability to the agonist bound receptor, resulting in an increase of 2.9° C.
(§1) A2AR-(2-316) expression was carried out by using the pRG/III-hs-MBP E. coli expression vector and DH5α cells. Cells were grown at 37° C. in 2 L flasks containing 500 mL of 2×TY medium supplemented with Ampicillin (100 μg/mL) and glucose (0.2% w/v). At OD600≈0.7, IPTG and theophylline were added at final concentrations respectively of 0.5 mM and 100 μM, and the temperature was reduced to 20° C. After 22 to 24 hours, cells were harvested in aliquots of 14 mL, centrifuged for 30 min and stored at −20° C. Both 5HT2C and M4 receptors were transiently expressed in HEK293T cells using GeneJuice transfection reagent used according to the manufacturers guidelines.
(§2) 5HT2C receptor was solubilised from transiently transfected mammalian cells in 50 mM Hepes pH7.4, 100 mM KCl, 0.5% DDM (0.1% CHS/0.6% CHAPS was added to cells for SCH23390 agonist assay). Tm analysis was performed directly on the soluble lysate. The Tm was determined by incubating 108 μl of the lysate with [N^6-methyl-^3H]Mesulergine radioligand at a final concentration of 17 nM or 9 nM [^3H]SCH23390 for one hour at 4° C. The six ligand incubations are then incubated at six different temperatures from 25° C. to 55° C., for thirty minutes. Receptor bound and free radioligand were separated using a 96-well plate gel filtration assay.
5HT2C receptor was solubilised from transiently transfected mammalian cells about 40 hours post transfection, in 50 mM Hepes pH7.4/100 mM KCl/0.5% DDM/(0.1% CHS/0.6% CHAPS was added to cells for SCH23390 agonist assay) and protease inhibitor. Cell lysates were left at 4° C. on a rotator and then cleared by centrifugation at 13,200 rpm for 20 minutes at 4° C. Thermostability analysis was performed directly on the soluble lysate. The Tm was determined by incubating 108 μl of the lysate with [N^6-methyl-^3H]Mesulergine radioligand at a final concentration of 17 nM or 9 nM [^3H]SCH23390 for one hour at 4° C. The six ligand incubations are then incubated at six different temperatures from 25° C. to 55° C., for thirty minutes. Receptor bound and free radioligand were separated using G25 Sephadex spin columns.

Data set [2] addresses T2, 5HT2C receptor (Homo sapiens, UniProt P28335, L95A).
T2 construct: made in house
T2 sequence (P28335 33-458 L95A): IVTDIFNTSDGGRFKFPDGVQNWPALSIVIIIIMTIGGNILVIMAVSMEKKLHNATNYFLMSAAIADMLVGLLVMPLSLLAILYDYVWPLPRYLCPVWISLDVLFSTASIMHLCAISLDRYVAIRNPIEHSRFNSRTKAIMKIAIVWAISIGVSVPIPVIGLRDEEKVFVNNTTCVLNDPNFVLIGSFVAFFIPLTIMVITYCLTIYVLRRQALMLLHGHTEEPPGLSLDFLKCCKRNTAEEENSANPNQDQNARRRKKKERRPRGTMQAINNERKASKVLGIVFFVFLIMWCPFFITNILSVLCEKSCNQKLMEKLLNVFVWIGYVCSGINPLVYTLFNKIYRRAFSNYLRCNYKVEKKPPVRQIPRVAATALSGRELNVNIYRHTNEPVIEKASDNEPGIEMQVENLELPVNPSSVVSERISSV
In words: Thermostability of 5HT2C receptor bound to antagonist mesulergine. The class given is physicochemical. To be noted: antagonist bound 5HT2C, data not shown. Here is the method:
as §1, §2

For data set [3], the system named is 5HT2C receptor. The description is as above. The class given is physicochemical, human. Conditions: bound to antagonist (mesulergine). How it is done:
as §1, §2

Data set [4] deals with T3, 5HT2C receptor (Homo sapiens, UniProt P28335, S94A).
T3 construct: made in house
T3 sequence (P28335 33-458 S94A): T2 sequence (P28335 33-458 L95A) with S62A, A63L
Described as above. The class given is physicochemical. To be noted: antagonist bound, versus parent 5HT2C. How it is done: as §1, §2

For data set [5], the target named is neurotensin receptor NTS1 (Rattus norvegicus, UniProt P20789, Y369A). The data set can be described thus: Two point thermostability assay, neurotensin agonist binding to NTS1 alanine scan mutants. The class given is physicochemical. The text has this: An alanine scan has been carried out on the rat neurotensin receptor NTS1 in the presence of the agonist neurotensin in order to stabilise the agonist conformation.

B1: N284: adenosine A2A receptor alanine scan mutant of Asparagine 284 (protein, listed as Homo sapiens)
chain: MPIMGSSVYITVELAIAVLAILGNVLVCWAVWLNSNLQNVTNYFVVSLAAADIAVGVLAIPFAITISTGFCAACHGCLFIACFVLVLTQSSIFSLLAIAIDRYIAIRIPLRYNGLVTGTRAKGIIAICWVLSFAIGLTPMLGWNNCGQPKEGKNHSQGCGEGQVACLFEDVVPMNYMVYFNFFACVLVPLLLMLGVYLRIFLAARRQLKQMESQPLPGERARSTLQKEVHAAKSLAIIVGLFALCWLPLHIINCFTFFCPDCSHAPLWLMYLAIVLSHTNSVVAPFIYAYRIREFRQTFRKIIRSHVLRQQEPFKAAGTSARVLAAHGSDGEQVSLRLNGHPPGVWANGSAPHPERRPNGYALGLVSGGSAQESQGNTGLPDVELLSHELKGVCPEPPGLDDPLAQDGAGVS
As to B1, the “thermostability (agonist binding at the destabilising temperature compared to wild type)” value with A2A receptor is “increased thermostability”.

B2: L95A: 5HT2C receptor mutant, L2.46 (L95 in 5HT2C) to alanine (protein, UniProt P28335 33-458, looked up, variant L95A)
5-hydroxytryptamine receptor …: T2 sequence (P28335 33-458 L95A)
For B2, in the data set with 5HT2C receptor [1] (agonist SCH23390 bound, versus parent 5HT2C), the “increase of Tm” value turned out to be 5.4 °C. Besides, the Tm in the data set with 5HT2C receptor [1] (bound to agonist SCH23390) came to 48.8 °C. Further, the “effect on thermal stability” value with 5HT2C receptor [2] was “did not confer any stability”.

B3: S94A: 5HT2C receptor mutant, S94 to alanine (protein, UniProt P28335 33-458, looked up, variant S94A)
5-hydroxytryptamine receptor …: T2 sequence (P28335 33-458 L95A) with S62A, A63L
With B3, the Tm with 5HT2C receptor [3] is 48.9 °C. The “increase of Tm” value with 5HT2C receptor [4] was found to be 11.76 °C.

B4: Y369: rat neurotensin receptor NTS1 mutant, residue 7.53 (Y369) to alanine (protein, listed as Rattus norvegicus)
chain: MHLNSSVPQGTPGEPDAQPFSGPQSEMEATFLALSLSNGSGNTSESDTAGPNSDLDVNTDIYSKVLVTAIYLALFVVGTVGNSVTAFTLARKKSLQSLQSTVHYHLGSLALSDLLILLLAMPVELYNFIWVHHPWAFGDAGCRGYYFLRDACTYATALNVASLSVERYLAICHPFKAKTLMSRSRTKKFISAIWLASALLAIPMLFTMGLQNRSGDGTHPGGLVCTPIVDTATVKVVIQVNTFMSFLFPMLVISILNTVIANKLTVMVHQAAEQGRVCTVGTHNGLEHSTFNMTIEPGRVQALRHGVLVLRAVVIAFVVCWLPYHVRRLMFCYISDEQWTTFLFDFYHYFYMLTNALFYVSSAINPILANLVSANFRQVFLSTLACLCPGWRHRRKKRPTFSRKPNSMSSNHAFSTSATRETLY
As to B4, in data set [5], the “thermostability (agonist binding at the destabilising temperature compared to wild type)” value is recorded as “increased agonist binding compared to the wild type receptor”.
